One block for each binder: values may come before it.
Legend:
[1] = biological target: T1, human PCSK9 (proprotein convertase subtilisin kexin type 9) (human, UniProt Q8NBP7 31-692, biotinylated in the BLI assay (site not stated)); assay: ITC, 37 C
T1 construct: Immobilized directly (SPR), biotinylated on streptavidin tips (BLI), recombinant from baculovirus (FRET); also called hPCSK9

[2] = biological target: T1, human PCSK9 (proprotein convertase …); assay: ITC, 37 C, average of 3 experiments
Experimental: Solution phase binding was measured in 25 mM HEPES, pH 7.41, 150 mM NaCl at 37° C.

T1 sequence (Q8NBP7 31-692 limits assumed): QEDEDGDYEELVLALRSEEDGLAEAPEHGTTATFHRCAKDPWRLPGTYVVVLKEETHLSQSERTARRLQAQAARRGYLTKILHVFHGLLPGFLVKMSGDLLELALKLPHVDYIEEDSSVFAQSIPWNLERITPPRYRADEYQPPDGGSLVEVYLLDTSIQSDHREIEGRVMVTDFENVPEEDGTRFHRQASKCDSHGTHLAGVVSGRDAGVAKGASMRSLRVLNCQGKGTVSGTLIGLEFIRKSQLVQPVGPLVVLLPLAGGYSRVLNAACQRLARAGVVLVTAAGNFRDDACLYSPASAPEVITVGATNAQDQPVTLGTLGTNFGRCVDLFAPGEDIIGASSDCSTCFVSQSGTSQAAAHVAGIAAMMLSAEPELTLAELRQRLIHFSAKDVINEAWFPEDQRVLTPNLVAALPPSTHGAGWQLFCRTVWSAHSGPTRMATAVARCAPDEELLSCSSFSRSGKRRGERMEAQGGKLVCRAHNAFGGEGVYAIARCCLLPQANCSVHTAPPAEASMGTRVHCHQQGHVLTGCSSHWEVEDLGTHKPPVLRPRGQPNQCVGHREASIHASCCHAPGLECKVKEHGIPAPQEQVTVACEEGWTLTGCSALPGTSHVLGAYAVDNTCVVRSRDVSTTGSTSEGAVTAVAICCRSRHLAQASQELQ

- ΔS [1]: -45.4 cal/mol ° C.
B1: anti-PCSK9 Adnectin 2013E01 (designed binder)
chain: MGVSDVPRDLEVVAATPTSLLISWVPPSDDYGYYRITYGETGGNSPVQEFTVPIGKGTATISGLKPGVDYTITVYAVEFPWPHAGYYHRPISINYRTEIDKPSQHHHHHH
notes: also called ATI001081

- ΔS [2]: -55.8 cal/mol ° C.
B2: ATI001174 [2013E01-non His tagged Cys mut], pegylated (designed binder)
chain: MGVSDVPRDLEVVAATPTSLLISWVPPSDDYGYYRITYGETGGNSPVQEFTVPIGKGTATISGLKPGVDYTITVYAVEFPWPHAGYYHRPISINYRTEIEKPCQ
modifications: pegylated via the cysteine of the EIEKPCQ tail (asterisk in Table 5)
notes: PEGylated, non His tagged cysteine mutant of 2013E01; also called ATI1174

Source: patent publication US20240239870A1 (published 2024)
